According to PMC3799859:

Target: FLAG-tagged Sig-1R, Q99720
Experiment: co-immunoprecipitation (IP: V5, Western blot for FLAG, quantified)
Conditions: chain shown with the change; n = 4; parent: est. 100; read off a plot

Sequence of FLAG-tagged Sig-1R, Q99720 (Q99720 whole entry): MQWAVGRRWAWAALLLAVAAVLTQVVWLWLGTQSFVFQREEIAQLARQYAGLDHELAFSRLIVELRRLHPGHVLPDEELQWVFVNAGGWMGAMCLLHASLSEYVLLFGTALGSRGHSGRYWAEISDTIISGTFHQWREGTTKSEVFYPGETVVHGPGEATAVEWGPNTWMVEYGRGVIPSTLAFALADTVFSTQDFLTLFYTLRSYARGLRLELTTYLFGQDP

B1: ΔIRE1-V5/His (ER lumenal domain of human IRE1), O75460 D123P (protein)
chain: IFGSTSTVTLPETLLFVSTLDGSLHAVSKRTGSIKWTLKEDPVLQVPTHVEEPAFLPDPNDGSLYTLGSKNNEGLTKLPFTIPELVQASPCRSSDGILYMGKKQPIWYVIDLLTGEKQQTLSSAFADSLCPSTSLLYLGRTEYTITMYDTKTRELRWNATYFDYAASLPEDDVDYKMSHFVSNGDGLVVTVDSESGDVLWIQNYASPVVAFYVWQREGLRKVMHINVAVETLRYLTFMSGEVGRITKWKYPFPKETEAKSKLTPTLYVGKYSTSLYASPSMVHEGVAVVPRGSTLPLLEGPQTDGVTIGDKGECVITPSTDVKFDPGLKSKNKLNYLRNYWLLIGHHETPLSASTKMLERFPNNLPKHRENVIPADSEKKSFEEVINLVDQTSENAPTTVSRDVEEKPAHAPARPEAPVDSMLKD
In the case of B1, the percent of parent is reported as 190%.
